{"source": "paper PMC5120336", "origin": "cited, not measured here", "biological_target": "IRAK-4 kinase domain (Homo sapiens) (UniProt Q9NWZ3)"}
{"substance": "IRAK-4 kinase domain (from UniProt Q9NWZ3)", "values": [{"measurement": "Kd", "value": 2500, "unit": "nM"}]}
